In publication PMC7160140, “Allosteric regulation accompanied by oligomeric state changes of Trypanosoma brucei GMP reductase through cystathionine-β-synthase domain” (Nature Communications, 2020):
Read-outs that look alike come from different tables or passages of the source. One block for each molecule: values may come before it.

Experiments:
[1] = target: T1, TbGMPR (guanosine 5′-monophosphate reductase) (Trypanosoma brucei, UniProt Q57ZS7); assay: biochemical; parameters: gene Tb05.1P6.110
T1 sequence (Q57ZS7 1-491): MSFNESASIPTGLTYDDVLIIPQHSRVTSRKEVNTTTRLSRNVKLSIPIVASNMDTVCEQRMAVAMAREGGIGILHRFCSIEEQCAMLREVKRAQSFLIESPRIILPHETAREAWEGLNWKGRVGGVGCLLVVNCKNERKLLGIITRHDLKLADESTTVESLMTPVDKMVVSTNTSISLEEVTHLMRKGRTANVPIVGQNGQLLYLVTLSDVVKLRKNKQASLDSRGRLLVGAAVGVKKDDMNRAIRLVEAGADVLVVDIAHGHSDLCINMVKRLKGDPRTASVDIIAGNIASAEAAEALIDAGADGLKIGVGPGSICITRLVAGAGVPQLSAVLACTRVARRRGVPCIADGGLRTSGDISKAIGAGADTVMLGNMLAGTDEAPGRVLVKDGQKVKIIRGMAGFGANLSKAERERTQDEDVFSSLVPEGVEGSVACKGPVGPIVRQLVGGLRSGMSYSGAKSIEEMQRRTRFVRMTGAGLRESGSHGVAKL

[2] = target: T2, TbGMPR (guanosine 5′-monophosphate reductase) (Trypanosoma brucei, UniProt Q57ZS7, W115R); assay: tryptophan fluorescence quenching; assay type: binding
T2 construct: gene Tb05.1P6.110; full-length, C-terminal histidine-tag

[3] = target: T2, TbGMPR (guanosine 5′-monophosphate reductase); assay: tryptophan fluorescence quenching (no Kd obtained); assay type: binding
[4] = target: T1, TbGMPR (guanosine 5′-monophosphate reductase); assay: co-crystal structure at […] Å; activation of purified enzyme (EC50); assay type: biochemical; parameters: gene Tb05.1P6.110; wild-type, C-terminal histidine-tag
[5] = target: TbGMPR C318A (inactive mutant of Trypanosoma brucei GMP reductase) (Trypanosoma brucei (ILTat 1.4)); assay: crystal structure; TbGMPR C318A co-crystallised with up to 3 mM GMP (C318A/GMP), 1.90 Å; 4 °C
[6] = target: TbGMPR C318A (inactive mutant of Trypanosoma brucei GMP reductase) (Trypanosoma brucei (ILTat 1.4)); assay: crystal structure; TbGMPR C318A without ligand (C318A apo), 2.80 Å; sitting drop, 4 °C; oligomer from crystal packing by PISA
[7] = target: TbGMPR∆CBS (Trypanosoma brucei GMP reductase lacking the CBS domain) (Trypanosoma brucei (ILTat 1.4)); assay: SEC-SAXS
[8] = target: Trypanosoma brucei guanosine 5'-monophosphate reductase, wild type (Trypanosoma brucei (ILTat 1.4)); assay: SEC-SAXS; no ligand; 4 or 12 mg/mL protein in 50 mM Tris-HCl pH 7.8, 0.5 M KCl, 3 mM EDTA, 1 mM DTT; Shodex KW403-4F; 20 °C; mass from volume of correlation, fractions of tetramer and octamers fitted by OLIGOMER
[9] = target: Trypanosoma brucei guanosine 5'-monophosphate reductase, wild type (Trypanosoma brucei (ILTat 1.4)); assay: SEC-SAXS; with 10 mM ATP; 4 or 12 mg/mL protein in 50 mM Tris-HCl pH 7.8, 0.5 M KCl, 3 mM EDTA, 1 mM DTT; 20 °C; fractions fitted by OLIGOMER; octamer to tetramers
[10] = target: Trypanosoma brucei guanosine 5'-monophosphate reductase, wild type (Trypanosoma brucei (ILTat 1.4)); assay: crystal structure; wild-type TbGMPR co-crystallised with up to 1 mM GTP (TbGMPR/GTP), 2.50 Å; 20 °C
[11] = target: Trypanosoma brucei guanosine 5'-monophosphate reductase, wild type (Trypanosoma brucei (ILTat 1.4)); assay: SEC-SAXS; with 10 mM GTP; 4 or 12 mg/mL protein in 50 mM Tris-HCl pH 7.8, 0.5 M KCl, 3 mM EDTA, 1 mM DTT; 20 °C; fractions fitted by OLIGOMER
[12] = target: Trypanosoma brucei guanosine 5'-monophosphate reductase, wild type (Trypanosoma brucei (ILTat 1.4)); assay: SEC-SAXS; with 10 mM GMP; 4 or 12 mg/mL protein in 50 mM Tris-HCl pH 7.8, 0.5 M KCl, 3 mM EDTA, 1 mM DTT; 20 °C; fractions fitted by OLIGOMER
purified protein = substrate: Nc1nc2c(ncn2[C@@H]2O[C@H](COP(=O)(O)O)[C@@H](O)[C@H]2O)c(=O)[nH]1; assay: purified protein; assay type: biochemical, Trypanosoma brucei; settings: NADPH active site; positive cooperativity via CBS domain

Molecule: Nc1ncnc2c1ncn2[C@@H]1O[C@H](COP(=O)(O)OP(=O)(O)OP(=O)(O)O)[C@@H](O)[C@H]1O [ATP]
EC50 [1]: 160 µM
Kd [2]: 194 ± 45 µM

Molecule: Nc1nc2c(ncn2[C@@H]2O[C@H](COP(=O)(O)O)[C@@H](O)[C@H]2O)c(=O)[nH]1 [GMP]
tryptophan fluorescence quenching (no Kd obtained) [3]: blue-shifting of the emission spectra of the protein with either GTP or GMP, but not with ATP

Molecule: Nc1nc2c(ncn2[C@@H]2O[C@H](COP(=O)(O)OP(=O)(O)OP(=O)(O)O)[C@@H](O)[C@H]2O)c(=O)[nH]1 [GTP]
Kd ([2]; read-out: Kd): 6.75 ± 0.58 µM
EC50 [4]: 4.8 µM

Molecule: TbGMPR C318A (inactive mutant of Trypanosoma brucei GMP reductase) (enzyme)
stoichiometry N [5]: 8
stoichiometry N [6]: 8

Molecule: TbGMPR∆CBS (Trypanosoma brucei GMP reductase lacking the CBS domain) (enzyme)
stoichiometry N [7]: 4

Octamer, relaxed (%) [8]: 53.2%
Octamer, twisted (%) [8]: 46.8%
Tetramer (%) [8]: 0%
stoichiometry N [8]: 8
Octamer, relaxed (%) [9]: 28%
Octamer, twisted (%) [9]: 11.2%
Tetramer (%) [9]: 60.8%
stoichiometry N [10]: 8
Octamer, relaxed (%) [11]: 0%
Octamer, twisted (%) [11]: 100%
Tetramer (%) [11]: 0%
Octamer, relaxed (%) [12]: 0%
Octamer, twisted (%) [12]: 97.8%
Tetramer (%) [12]: 2.2%
Molecule: Trypanosoma brucei guanosine 5'-monophosphate reductase, wild type (enzyme)

B1: TbGMPR (guanosine 5′-monophosphate reductase) (Trypanosoma brucei brucei TREU927) (protein)
chain: MSFNESASIPTGLTYDDVLIIPQHSRVTSRKEVNTTTRLSRNVKLSIPIVASNMDTVCEQRMAVAMAREGGIGILHRFCSIEEQCAMLREVKRAQSFLIESPRIILPHETAREAWEGLNWKGRVGGVGCLLVVNCKNERKLLGIITRHDLKLADESTTVESLMTPVDKMVVSTNTSISLEEVTHLMRKGRTANVPIVGQNGQLLYLVTLSDVVKLRKNKQASLDSRGRLLVGAAVGVKKDDMNRAIRLVEAGADVLVVDIAHGHSDLCINMVKRLKGDPRTASVDIIAGNIASAEAAEALIDAGADGLKIGVGPGSICITRLVAGAGVPQLSAVLACTRVARRRGVPCIADGGLRTSGDISKAIGAGADTVMLGNMLAGTDEAPGRVLVKDGQKVKIIRGMAGFGANLSKAERERTQDEDVFSSLVPEGVEGSVACKGPVGPIVRQLVGGLRSGMSYSGAKSIEEMQRRTRFVRMTGAGLRESGSHGVAKL
notes: wild-type, C-terminal histidine-tag
K0.5 (purified protein): 184 ± 3 µM
kcat (purified protein): 0.2783 ± 0.0025 s⁻¹
kcat/Km (purified protein): 1520 M⁻¹ s⁻¹
